Legend:
U-2932 cells [1] = assay: Real Time Glo viability screen and validation, Betalutin with PARP or cell cycle kinase inhibitors (Examples 4, 7); assay type: cell-based, human; settings: U-2932, validation screen, 0-1280 nM
RIVA cells = assay: Real Time Glo viability screen, Betalutin with PARP or cell cycle kinase inhibitors (Examples 4, 7); assay type: cell-based, human; settings: RIVA
Experimental: (§1) DLBCL cell lines U2932 and RIVA were maintained in RPMI 1640-GlutaMAX medium (Gibco) supplemented with 15% fetal bovine serum (Biowest) and 1% penicillin-streptomycin (Gibco) at 37° C. in a humidified atmosphere containing 5% CO2. Cells were split twice a week 1:7 and diluted 2-4 days before start of the experiment, to ensure they are in exponential growth at the beginning of the experiment.
(§2) Cells were treated in 6-well plates without shaking for 18 h with Betalutin at a final concentration of 1 μg/ml for U2932 and 0.5 μg/ml for RIVA. After treatment, PBS was added to the cells, and the cells pelleted. Cells were first resuspended in 1 ml PBS, then washed twice in PBS and finally diluted in growth medium to a final concentration of 2.5*10^6 cells/ml.
(§3) Cells density measurements were performed the day before seeding. Based on these measurements cells were seeded in 384-well plates at a density of 3000 cells per well in a culturing volume of 25 μl (resulting in start titers: 120 000 cells/ml) using a robot. For measuring viability using Real Time Glo (Promega, WI, USA), the Cell Viability Substrate and NanoLuc® Enzyme were diluted 1:500 in growth medium, and 25 μL of diluted reagents dispensed in each well by a robot. All reagents were equilibrated to 37° C. Cells were incubated with the reaction mix for 1 h at 37° C. before the first measurement of luminescence. Measurements were repeated as often as required within 72 h after adding the reagents. A Tecan SPARK 10M plate reader (Tecan, SUI) was used to measure luminescence, with the integration time set to 1 sec.
(§4) The screen was performed in 384-well plate with selected PARP inhibitors (stock solutions 10 mM in DMSO) acquired from SelleckChem (Selleckchem, TX, USA). To include no-drug controls, the drug panel (Table 6) was divided on two plates. Due to previous observations of cells growing poorly in wells located at the edges of the plates, the two outer most rows and columns were not used. As previously mentioned three different drug concentrations were used in the screen, 10 nM and 1 μM for U2932 and 10 and 100 nM for RIVA.
(§5) Candidate hits were identified using the Bliss Independence test for synergy. The effect of each drug alone at each concentration was calculated as the fraction of dead cells as compared to control cells Fa=(1−(RLUdrug/avgRLUcontrol), a similar calculation was performed for the effect of Betalutin alone Fb=(1−(avgRLUBetalutin/avgRLUcontrol). Through the following equation we found the expected additive effect of the combination of drug+Betalutin: Expected effect (E)Fab=(Fa+Fb−Fa*Fb). We subtracted this expected effect from the measured effect (M)Fab=(1−(RLUDrug+Betalutin/avgRLUcontrol) to get a value (Diff)Fab representing how the measured effect differed from the expected additive effect of the combination. This value was normalized to the survival fraction of drug alone: (Diff)Fab#=(Diff)Fab/(1−Fa). Furthermore, to get a measure of how big the well-to-well variation was, we calculated the standard deviation for the effect of Betalutin alone in the 48 control wells on each plate: (STDEV)Fb=(RLUBetalutin/RLUcontrol)−(averageRLUBetalutin/averageRLUcontrol). Drugs with a value (Diff)Fab#two times higher than the standard deviation of Betalutin treated controls, (STDEV)Fb, were scored as hits.
as §3, with “Measurements were repeated as often as required within 72 h after adding the reagents. A Tecan SPARK 10M plate reader (Tecan, SUI) was used to measure luminescence, with the integration time set to 1 sec.” left out

U-2932 cells [2] = assay: Real Time Glo viability screen and validation, Betalutin with PARP or cell cycle kinase inhibitors (Examples 4, 7); assay type: cell-based, human
Experimental: as §1, §2, §3, §4, §5
as §3, with “Measurements were repeated as often as required within 72 h after adding the reagents. A Tecan SPARK 10M plate reader (Tecan, SUI) was used to measure luminescence, with the integration time set to 1 sec.” left out

Ramos tumor xenografts = assay: Treatment of mice with tumor xenografts; assay type: in vivo, athymic mice; settings: Ramos xenograft
Description: Each treatment group included 6-9 mice.

[3] = system: CDK1 and its phosphorylations, p345-Chk1, Wee-1, Myt-1, CDK7 in DOHH2 cells; assay: Protein expression by Western blot; assay type: cell-based, human
Experimental: (§6) Protein expression was assessed in 1×10^6 Ramos, DOHH2 or Rec-1 cells/mL grown in 12-well plates and exposed for 18 h to 0 and 6 MBq/mL of ^177Lu-lilotomab. Cells were harvested at 0, 2 h, 18 h, 1 d, 2 d and 3 d of RIT. At each time point, cells were rinsed and incubated in RIPA buffer (Santa Cruz) at 4° C. for 30 minutes. Cells were centrifuged and supernatant (containing proteins) were collected. Proteins were electrophoresed through SDS-PAGE using 12% poly-acrylamide gels and electrotransferred onto nitrocellulose membranes. Blots were incubated with anti-CDK1, anti-p-CDK1(Tyr15) (clone 10A11), anti-p-CDK1(Thr14), anti-p-CDK1(Thr161), anti-CDK7, anti-Wee-1 (clone D10D2), anti-Myt-1, anti-p-CHK1 (Ser345) and anti-human GAPDH (1/1000, Cell Signaling Technologies, Leiden, The Netherlands) primary antibodies. Blot were washed and incubated with horseradish peroxidase-conjugated anti-mouse Ig (115-036-072, Jackson ImmunoResearch) or with horseradish peroxidase-conjugated anti-rabbit Ig (7074, Cell Signaling). Signal detection of immunoblots was carried out using the enhanced chemiluminescence protocol according to the manufacturer's instructions (Clarity™ Western ECL blotting substrates, 1705061, BioRad). PXi analyser (Ozyme) was used to measure levels of protein expression.

[4] = system: CDK1 and its phosphorylations, p345-Chk1, Wee-1, Myt-1, CDK7 in Ramos cells; assay: Protein expression by Western blot; assay type: cell-based, human
Experimental: as §6

Nc1nc(Nc2ccc(S(N)(=O)=O)cc2)nn1C(=O)c1c(F)cccc1F [JNJ-7706621]
Effect of monotreatment on proliferation (U-2932 cells [1]): not evident at concentrations below 160 nM | Growth inhibitory effect, drug alone (RIVA cells; drug 100 nM): no growth inhibitory effect | inhibition at 1 µM (U-2932 cells [2]; Homo sapiens, U2932, 120 h, U-2932, drug 1 μM, five days into treatment, read-out: Growth inhibition, drug alone): ~40% | inhibition at 0.64 µM (U-2932 cells [2]; Homo sapiens, U2932, U-2932, drug 640 nM, read-out: Growth inhibition, drug with Betalutin pre-treatment): ~80% | Growth inhibitory effect, drug alone (U-2932 cells [2]; U-2932, drug 10 nM): no growth inhibitory effect | Combined growth inhibition with Betalutin pre-treatment (U-2932 cells [2]; U-2932, drug 1 μM + Betalutin): more than 60% | Synergy by combination index (U-2932 cells [2]; U-2932, drug 80-1280 nM with 0.5, 1 or 2 μg/ml Betalutin, day 5): Synergy was found for all tested combinations | Synergy by combination index, confirmation experiments (U-2932 cells [2]; U-2932, drug 100-5000 nM with Betalutin 0.5-5 μg/ml, day 5): observed for all but two combinations | Growth impairment, drug alone (U-2932 cells [2]; U-2932, highest tested dose 1280 nM): 30% | BLISS analysis, combination with Betalutin versus expected additive effect (U-2932 cells [2]; U-2932, significant = more than twice the SD of Betalutin alone): significantly greater than the expected additive effect

C=CCn1c(=O)c2cnc(Nc3ccc(N4CCN(C)CC4)cc3)nc2n1-c1cccc(C(C)(C)O)n1 [MK-1775]
Median survival (Ramos tumor xenografts; 250 MBq/kg ^177Lu-lilotomab + 30 mg/kg MK-1775 twice a day, day 1 to 5): 47 days | Tumor growth versus 250 MBq/kg ^177Lu-lilotomab alone (Ramos tumor xenografts; 250 MBq/kg ^177Lu-lilotomab + MK-1775, p=0.001): significantly delayed tumor growth

B1: Lutetium-177 [^177Lu]-lilotomab satetraxetan (conjugate, chains of the INN, looked up)
VH: EIQLQQSGPELVKPGASVKVSCKASGYSFTDYNMYWVKQSHGKSLEWIGYIDPYNGDTTYNQKFKGKATLTVDKSSSTAFIHLNSLTSEDSAVYYCARSPYGHYAMDYWGQGTSVTVSS
VL: DIVMTQSHKLLSTSVGDRVSITCKASQDVSTAVDWYQQKPGQSPKLLINWASTRHTGVPDRFTGSGSGTDYTLTISSMQAEDLALYYCRQHYSTPFTFGSGTKLEIK
modifications: 177Lu satetraxetan chelator conjugate
Proliferation relative to non-treated cells (RIVA cells; 0.5 μg/ml [600 MBq/mg], days 4-6): more than 40% | Inhibition of proliferation capacity, single treatment (RIVA cells; Betalutin 0.5 μg/ml, days 5 and 6): about 50% | Expression of Wee-1 ([3]; DOHH2): became undetectable at 24 h post-treatment | Activating pThr161 CDK1 phosphorylation ([3]; DOHH2, 6 MBq/mL for 18 h): persistent increase | CDK1 level ([3]; DOHH2, 6 MBq/mL for 18 h): decreased in DOHH2 at 48 h and 72 h | Inhibitory pTyr15 and pThr14 CDK1 phosphorylations ([3]; DOHH2, 6 MBq/mL for 18 h): dropped respectively at 24 h and 48 h | Expression of Myt-1 ([3]; DOHH2, 18 h after treatment): decreased | Level of phosphorylated CHK1 (Ser345) ([3]; DOHH2, at 18-24 h): increased | Levels of CDK7 ([3]; DOHH2, compared with Ramos cells): stable or increased | Activating pThr161 CDK1 phosphorylation ([4]; 6 MBq/mL for 18 h): transient low levels | CDK1 level ([4]; 6 MBq/mL for 18 h): quite stable | Inhibitory pTyr15 and pThr14 CDK1 phosphorylations ([4]; 6 MBq/mL for 18 h): high persistent levels | Expression of Myt-1 ([4]; 18 h after treatment): decreased | Level of phosphorylated CHK1 (Ser345) ([4]; at 18-24 h): increased | Expression of Wee-1 ([4]; between 18 and 48 h): comparable in control and treated | Proliferation relative to non-treated cells (U-2932 cells [2]; U-2932, 1 μg/ml [600 MBq/mg]): more than 80% | Inhibition of proliferation capacity, single treatment (U-2932 cells [2]; U-2932, Betalutin 1 μg/ml, days 5 and 6): less than 10% | Proliferation potential compared to untreated cells (U-2932 cells [2]; U-2932, validation screen, highest Betalutin dose (2 μg/ml)): about 70% | Median survival (Ramos tumor xenografts; 250 MBq/kg ^177Lu-lilotomab alone): 40 days
